Test results taken from publication PMC6773438.

B1: Ramazzottius varieornatus damage suppressor protein (Rv Dsup) [Ramazzottius varieornatus] / mononucleosomes reconstituted by salt dialysis with purified recombinant Drosophila core histones [Drosophila] (parent)
chain 1: MASTHQSSTEPSSTGKSEETKKDASQGSGQDSKNVTVTKGTGSSATSAAIVKTGGSQGKDSSTTAGSSSTQGQKFSTTPTDPKTFSSDQKEKSKSPAKEVPSGGDSKSQGDTKSQSDAKSSGQSQGQSKDSGKSSSDSSKSHSVIGAVKDVVAGAKDVAGKAVEDAPSIMHTAVDAVKNAATTVKDVASSAASTVAEKVVDAYHSVVGDKTDDKKEGEHSGDKKDDSKAGSGSGQGGDNKKSEGETSGQAESSSGNEGAAPAKGRGRGRPPAAAKGVAKGAAKGAAASKGAKSGAESSKGGEQSSGDIEMADASSKGGSDQRDSAATVGEGGASGSEGGAKKGRGRGAGKKADAGDTSAEPPRRSSRLTSSGTGAGSAPAAAKGGAKRAASSSSTPSNAKKQATGGAGKAAATKATAAKSAASKAPQNGAGAKKKGGKAGGRKRK
chain 2: not shown
chain 3: not shown
chain 4: not shown
chain 5: not shown

Variants of: B1
Assay: gel mobility shift
Conditions: Dsup/Nucleosome 3.0, mononucleosome, 5S rDNA sequence (147 bp), parent: 73

Variant	response
chain 1 R363E R364E R367E	47 % Bound

Same assay, conditions: Dsup/Nucleosome 4.5, mononucleosome, 5S rDNA sequence (147 bp), parent: 95

Variant	response
chain 1 R363E R364E R367E	69 % Bound
